B1: S-adenosylhomocysteine hydrolase-like protein 1 (Homo sapiens), O43865 (parent)
chain: MSMPDAMPLPGVGEELKQAKEIEDAEKYSFMATVTKAPKKQIQFADDMQEFTKFPTKTGRRSLSRSISQSSTDSYSSAASYTDSSDDEVSPREKQQTNSKGSSNFCVKNIKQAEFGRREIEIAEQDMSALISLRKRAQGEKPLAGAKIVGCTHITAQTAVLIETLCALGAQCRWSACNIYSTQNEVAAALAEAGVAVFAWKGESEDDFWWCIDRCVNMDGWQANMILDDGGDLTHWVYKKYPNVFKKIRGIVEESVTGVHRLYQLSKAGKLCVPAMNVNDSVTKQKFDNLYCCRESILDGLKRTTDVMFGGKQVVVCGYGEVGKGCCAALKALGAIVYITEIDPICALQACMDGFRVVKLNEVIRQVDVVITCTGNKNVVTREHLDRMKNSCIVCNMGHSNTEIDVTSLRTPELTWERVRSQVDHVIWPDGKRVVLLAEGRLLNLSCSTVPTFVLSITATTQALALIELYNAPEGRYKQDVYLLPKKMDEYVASLHLPSFDAHLTELTDDQAKYLGLNKNGPFKPNYYRY
partner: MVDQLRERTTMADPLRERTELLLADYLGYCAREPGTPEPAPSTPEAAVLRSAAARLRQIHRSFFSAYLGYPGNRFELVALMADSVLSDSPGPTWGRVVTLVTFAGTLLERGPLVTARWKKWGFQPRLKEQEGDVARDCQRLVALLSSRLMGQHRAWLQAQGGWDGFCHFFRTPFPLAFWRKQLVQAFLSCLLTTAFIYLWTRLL

Variants of: B1
Conditions: with BCL2L10, Q9HD36

| Variant | effect of a mutation on the interaction |
| --- | --- |
| S68A | with no effect |
